{
  "source": "paper PMC11021482",
  "binders": {"B1": {"name": "recombinant mouse CXCL5 (ligand)", "chain": "APSSVIAATELRCVCLTVTPKINPKLIANLEVIPAGPQCPTVEVIAKLKNQKEVCLDPEAPVIKKIIQKILGSDKKKAKRNALAVERTASVQ"}},
  "target": "T1, CXCR2 of mouse DRG neurons (mouse (endogenous in DRG)) (UniProt P35343)",
  "T1 sequence": "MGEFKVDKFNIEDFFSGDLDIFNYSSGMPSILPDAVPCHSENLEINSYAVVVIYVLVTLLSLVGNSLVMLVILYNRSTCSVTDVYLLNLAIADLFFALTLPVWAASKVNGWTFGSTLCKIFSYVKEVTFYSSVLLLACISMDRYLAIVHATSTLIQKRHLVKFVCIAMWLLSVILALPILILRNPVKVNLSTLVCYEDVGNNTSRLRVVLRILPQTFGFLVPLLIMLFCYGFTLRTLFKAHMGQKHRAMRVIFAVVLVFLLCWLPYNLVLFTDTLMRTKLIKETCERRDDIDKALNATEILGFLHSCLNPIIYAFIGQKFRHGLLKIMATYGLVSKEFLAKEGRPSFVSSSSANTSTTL",
  "data": [
    {"binder": "B1", "values": [
      {"measurement": "EC50 of the Ca^2+ response of cultured mouse DRG neurons to CXCL5 (Fura-2 imaging, dose-response)", "result": 24.8, "unit": "nM"}
    ]}
  ]
}
